Where a chain is given by its changes, count along the chain named. Numbers in names are those of the source.
Columns and labels:
[1] = target: T1, human CD137 expressed on cells (Jurkat human CD137 NF-kB luciferase reporter cells; human CD8+ T cells) (human, UniProt Q07011 24-255); experiment: cell-based or functional assay
[2] = target: T1, human CD137 expressed on cells (Jurkat …); experiment: cell-based or functional assay; remark: listed apart in the source
[3] = target: T2, recombinant Fc-tagged ectodomain of human PD1 (Acro Biosystems PD1-H5257) (human, UniProt Q15116 25-170); experiment: SPR, Biacore 8K, single-cycle kinetics; Fc-tagged ectodomain captured on Protein G chip; 1:1 model
T2 construct: Bought protein; not shown: Fc tag
Procedure: (§1) Binding of Humabody® VH constructs was measured using a single-cycle kinetics method using the BIAcore 8K instrument with 90 second sample injections with a sample concentration range of low nanomolar to high nanomolar. […] The Protein G sensor surface was regenerated with a 20 second injection of 10 mM Glycine buffer, pH 1.5 (GE Healthcare BR100354). Data were analysed using a 1:1 binding model in Biacore Insight Evaluation software, including Humabody® VH constructs with two PD-1 arms.

[4] = target: T3, recombinant Fc-tagged ectodomain of human CD137 (Acro Biosystems 41B-H5258) (human, UniProt Q07011 24-186); experiment: as above
T3 construct: Bought protein; not shown: Fc tag
Procedure: as §1

[5] = target: T4, recombinant Fc-tagged ectodomain of cynomolgus CD137 (R&D S9324-4b) (cynomolgus macaque, UniProt A9YYE7 24-186); experiment: as above
T4 construct: Bought protein; also called Cyno CD137; cynomolgus macaque CD137; not shown: Fc tag and any linker to it
Procedure: as §1

[6] = target: T5, recombinant Fc-tagged ectodomain of cynomolgus PD1 (Acro Biosystems PD1-C5254) (cynomolgus macaque, UniProt B0LAJ3 25-170); experiment: as above
T5 construct: Bought protein; also called Cyno PD1; cynomolgus macaque PD1; not shown: Fc tag and any linker to it
Procedure: as §1

[7] = target: T1, human CD137 expressed on cells (Jurkat …); experiment: cell-based or functional assay; remark: listed apart in the source
[8] = target: T6, human CD137 expressed on CHO cells (human, UniProt Q07011 18-255); experiment: flow cytometry on CHO huCD137 cells
T6 construct: also called CHO huCD137; CHO human CD137 cells

[9] = target: T6, human CD137 expressed on CHO cells; experiment: FMAT/Mirrorball on CHO huCD137 cells
Outline: (§2)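 His-tagged VH molecules bound to CHO cells expressing human PD-1 or human CD137, with CHO parent cells as control, in PBS pH 7.4, 0.1% BSA, 0.05% sodium azide. Read by FMAT on Mirrorball (ex 488/640 nm); binding taken as FL2 median fluorescence intensity of FL5-gated events.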

[10] = target: T7, human PD-1 expressed on CHO cells (human, UniProt Q15116 21-288); experiment: FMAT/Mirrorball on CHO huPD1 cells
T7 construct: also called CHO huPD1; CHO human PD1 cells
Outline: as §2

[11] = target: T7, human PD-1 expressed on CHO cells; experiment: flow cytometry on CHO huPD1 cells
[12] = target: T2, recombinant Fc-tagged ectodomain of …; experiment: SPR, Biacore 8K, single-cycle kinetics; Fc-tagged ectodomain captured on Protein G chip; 1:1 model (construct with two PD-1 arms)
Procedure: as §1

B1: TPP-1246 CD137A-6GS-HSA2-6GS-PD138G7(G109D) (bispecific antibody)
chain: EVQLVESGGGLVQPGGSLRLSCAASGFTLSNYWMNWVRQAPGKGLEWVANINQDGSERYYVDSVKGRFTISRDNAKNSLYLQMNSLRAEDTAVYYCARGGEGYGVDHYGLDVSGQGTTVTVSSGGGGSGGGGSGGGGSGGGGSGGGGSGGGGSEVQLVESGGGLVKPGGSLRLSCAASGFTFSNYNMNWVRQAPGKGLEWVSSISSAGTHIYYADSVKGRFTISRDNAKNSLYLQMNSLRAEDTAVYYCARDPHSTGWYKDFDYWGQGTLVTVSSGGGGSGGGGSGGGGSGGGGSGGGGSGGGGSEVQLVESGGGVVRPGGSLRLSCAASGFTFDDYAMSWVRQAPGKGLEWVSGITWNGGSTGYADSVKDRFTISRDNAKNSLYLQMNSLRAEDTALYYCVRDKYSYAWSYDDFDIWGQGTMVTVSS
For B1, the “Jurkat-CD137/CHO-PD-1 Reporter Assay EC50” value [1] was 0.0729 nM, the “CD8+ T-cell activation assay - IL-2 release, EC50” value [2] was 0.176 nM and the Kd [3] was 8.38 nM. For the same binder, the koff [3] was 0.00202 s⁻¹, the kon [3] was 241000 M⁻¹ s⁻¹ and the Kd [4] was 0.541 nM. It also gave a koff [4] of 0.000187 s⁻¹, a kon [4] of 345000 M⁻¹ s⁻¹ and a Kd [5] of 0.842 nM. For the same binder, the koff [5] was 0.000267 s⁻¹, the kon [5] was 317000 M⁻¹ s⁻¹ and the Kd [6] was 20.5 nM. For the same binder, the koff [6] was 0.00464 s⁻¹ and the kon [6] was 227000 M⁻¹ s⁻¹.

B2: TPP-801 PSMA-6GS-CD137-6GS-HSA (bispecific antibody)
chain: EVQLVESGGGVVQPGRSLRLSCAASGFSFSGYGMHWVRQAPGKGLEWVAYISYDGSNKYYADSVKGRFTISRDNSKNTLYLQMNSLRAEDTAVYYCAKDPAWGLRLGESSSYDFDIWGQGTMVTVSSGGGGSGGGGSGGGGSGGGGSGGGGSGGGGSEVQLVESGGGVVQPGGSLRLSCAASGFTFSNYGMHWVRQAPGKGLEWVAVISNDGNTKTYADSVKGRFTISRDNSKNTLYLQMNSLRAEDTAVYYCAQDETTTVTASYYFDYWGQGTLVTVSSGGGGSGGGGSGGGGSGGGGSGGGGSGGGGSEVQLVESGGGLVKPGGSLRLSCAASGFTFSNYNMNWVRQAPGKGLEWVSSISSAGTHIYYADSVKGRFTISRDNAKNSLYLQMNSLRAEDTAVYYCARDPHSTGWYKDFDYWGQGTLVTVSS
With B2 the “Jurkat-CD137/CHO-PSMA Reporter Assay EC50” value [7] was 1.3 nM.

B3: TPP-1028: CD137A -6GS-HSA3-6GS-PD138G7(G109D)-His (bispecific antibody)
chain: EVQLVESGGGLVQPGGSLRLSCAASGFTLSNYWMNWVRQAPGKGLEWVANINQDGSERYYVDSVKGRFTISRDNAKNSLYLQMNSLRAEDTAVYYCARGGEGYGVDHYGLDVSGQGTTVTVSSGGGGSGGGGSGGGGSGGGGSGGGGSGGGGSEVQLLESGGGLVKPGGSLRLSCAASGFTVSSYTMNWVRQAPGKGLEWVSSISSSGRYIYYADSVKGRFTISRDNAKNSLYLQMNSLRAEDTAVYYCARDPRMVGNPHEFDIWGQGTMVTVSSGGGGSGGGGSGGGGSGGGGSGGGGSGGGGSEVQLVESGGGVVRPGGSLRLSCAASGFTFDDYAMSWVRQAPGKGLEWVSGITWNGGSTGYADSVKDRFTISRDNAKNSLYLQMNSLRAEDTALYYCVRDKYSYAWSYDDFDIWGQGTMVTVSSAAAHHHHHH
notes: Single-chain VH fusion (CD137 VH, HSA VH, PD-1 VH), His tag
B3 showed an EC50 [8] of 1.99 nM, an EC50 [9] of 0.151 nM and an EC50 [10] of 0.583 nM. It also gave an EC50 [11] of 22.7 nM.

B4: TPP-1027: CD137A -6GS-HSA2-6GS-PD138G7(G109D)-His (bispecific antibody)
chain: EVQLVESGGGLVQPGGSLRLSCAASGFTLSNYWMNWVRQAPGKGLEWVANINQDGSERYYVDSVKGRFTISRDNAKNSLYLQMNSLRAEDTAVYYCARGGEGYGVDHYGLDVSGQGTTVTVSSGGGGSGGGGSGGGGSGGGGSGGGGSGGGGSEVQLVESGGGLVKPGGSLRLSCAASGFTFSNYNMNWVRQAPGKGLEWVSSISSAGTHIYYADSVKGRFTISRDNAKNSLYLQMNSLRAEDTAVYYCARDPHSTGWYKDFDYWGQGTLVTVSSGGGGSGGGGSGGGGSGGGGSGGGGSGGGGSEVQLVESGGGVVRPGGSLRLSCAASGFTFDDYAMSWVRQAPGKGLEWVSGITWNGGSTGYADSVKDRFTISRDNAKNSLYLQMNSLRAEDTALYYCVRDKYSYAWSYDDFDIWGQGTMVTVSSAAAHHHHHH
notes: as for B3
B4 was tested, and the EC50 [8] was 1.47 nM, the EC50 [9] was 0.0672 nM and the EC50 [10] was 0.173 nM. It also gave an EC50 [11] of 5.01 nM.

B5: TPP-799 PSMA-6GS-CD137-6GS-HSA (bispecific antibody)
chain: EVQLVESGGGVVQPGRSLRLSCAASGFSFSGYGMHWVRQAPGKGLEWVAYISYDGSNKYYADSVKGRFTISRDNSKNTLYLQMNSLRAEDTAVYYCAKDPAWGLRLGESSSYDFDIWGQGTMVTVSSGGGGSGGGGSGGGGSGGGGSGGGGSGGGGSEVQLVESGGGVVQPGGSLRLSCAASGFTFSNYGMHWVRQAPGKGLEWVAVISNDGNTKTYADSVKGRFTISRDNSKNTLYLQMNSLRAEDTAVYYCAQDETTTVTASYYFDYWGQGTLVTVSSGGGGSGGGGSGGGGSGGGGSGGGGSGGGGSEVQLVESGGGLVQPGRSLRLSCAASGFTFHHYAMHWVRQAPGKGLEWVSGISWNGNKITYADSVKGRFTISRDNAKNSLYLQMNSLRAEDTALYYCVRDSSLFIVGAPTFEHWGRGTLVTVSS
With B5 the “Jurkat-CD137/CHO-PSMA Reporter Assay EC50” value [7] was 5.6 nM.

B6: TPP-806 PSMA-6GS-CD137-6GS-HSA (bispecific antibody)
chain: B5 chain with V168L, A245T
For B6, the “Jurkat-CD137/CHO-PSMA Reporter Assay EC50” value [7] was 9.3 nM.

B7: TPP-805 PSMA-6GS-CD137-6-6GS-HSA (bispecific antibody)
chain: B5 chain with V168L, T235M, A245T
For B7, the “Jurkat-CD137/CHO-PSMA Reporter Assay EC50” value [7] was 16 nM.

B8: TPP-1438 CD137A-6GS-HSA2-6GS-PD138G7(G109D)-6GS-PD138G7(G109D) (bispecific antibody)
chain: EVQLVESGGGLVQPGGSLRLSCAASGFTLSNYWMNWVRQAPGKGLEWVANINQDGSERYYVDSVKGRFTISRDNAKNSLYLQMNSLRAEDTAVYYCARGGEGYGVDHYGLDVSGQGTTVTVSSGGGGSGGGGSGGGGSGGGGSGGGGSGGGGSEVQLVESGGGLVKPGGSLRLSCAASGFTFSNYNMNWVRQAPGKGLEWVSSISSAGTHIYYADSVKGRFTISRDNAKNSLYLQMNSLRAEDTAVYYCARDPHSTGWYKDFDYWGQGTLVTVSSGGGGSGGGGSGGGGSGGGGSGGGGSGGGGSEVQLVESGGGVVRPGGSLRLSCAASGFTFDDYAMSWVRQAPGKGLEWVSGITWNGGSTGYADSVKDRFTISRDNAKNSLYLQMNSLRAEDTALYYCVRDKYSYAWSYDDFDIWGQGTMVTVSSGGGGSGGGGSGGGGSGGGGSGGGGSGGGGSEVQLVESGGGVVRPGGSLRLSCAASGFTFDDYAMSWVRQAPGKGLEWVSGITWNGGSTGYADSVKDRFTISRDNAKNSLYLQMNSLRAEDTALYYCVRDKYSYAWSYDDFDIWGQGTMVTVSS
notes: Single-chain fusion of four VH single domains, two PD-1 arms
For B8, the “Jurkat-CD137/CHO-PD-1 Reporter Assay EC50” value [1] was 0.00466 nM, the Kd [12] was 0.0951 nM and the koff [12] was 5.02e-05 s⁻¹. It also gave a kon [12] of 527000 M⁻¹ s⁻¹, a Kd [4] of 0.62 nM and a koff [4] of 0.00011 s⁻¹. The kon [4] was 500000 M⁻¹ s⁻¹.

B9: TPP-1439 PD138G7(G109D)-6GS-PD138G7(G109D)-6GS-CD137A-7-6GS-HSA2 (bispecific antibody)
chain: EVQLVESGGGVVRPGGSLRLSCAASGFTFDDYAMSWVRQAPGKGLEWVSGITWNGGSTGYADSVKDRFTISRDNAKNSLYLQMNSLRAEDTALYYCVRDKYSYAWSYDDFDIWGQGTMVTVSSGGGGSGGGGSGGGGSGGGGSGGGGSGGGGSEVQLVESGGGVVRPGGSLRLSCAASGFTFDDYAMSWVRQAPGKGLEWVSGITWNGGSTGYADSVKDRFTISRDNAKNSLYLQMNSLRAEDTALYYCVRDKYSYAWSYDDFDIWGQGTMVTVSSGGGGSGGGGSGGGGSGGGGSGGGGSGGGGSEVQLVESGGGLVQPGGSLRLSCAASGFTLSNYWMNWVRQAPGKGLEWVANINQDGSERYYVDSVKGRFTISRDNAKNSLYLQMNSLRAEDTAVYYCARGGEGYGVDHYGLDVSGQGTTVTVSSGGGGSGGGGSGGGGSGGGGSGGGGSGGGGSEVQLVESGGGLVKPGGSLRLSCAASGFTFSNYNMNWVRQAPGKGLEWVSSISSAGTHIYYADSVKGRFTISRDNAKNSLYLQMNSLRAEDTAVYYCARDPHSTGWYKDFDYWGQGTLVTVSS
notes: as for B8
B9 was tested, and the “Jurkat-CD137/CHO-PD-1 Reporter Assay EC50” value [1] was 0.0145 nM, the Kd [12] was 0.0683 nM and the koff [12] was 5.12e-05 s⁻¹. It also gave a kon [12] of 750000 M⁻¹ s⁻¹, a Kd [4] of 0.506 nM and a koff [4] of 0.000107 s⁻¹. It also gave a kon [4] of 800000 M⁻¹ s⁻¹.
